Among the data in the supplement of paper PMC10567573 are protein stability index values, retold here.

B1: DLC1 (parent)
chain: AEVVKIRDSFSNQNTETKDTKSR
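Note: lentivirally expressed fusions sorted by FACS into six bins by GFP to DsRed ratio, PSI derived from sequencing read proportions per bin multiplied by bin number.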

In this data set the parent is B1. Description: protein stability index of a GFP-peptide fusion (GPS, HEK-293T) (PSI 1-6); higher = more stable. The conditions noted are these: c terminus: native.
With AEVVKIRDSFSNQNTETKDTKRR, the protein stability index came out at 2.75.
For AEVVKIRDSFSNQNTETKDTKDR the value was 3.23; for AEVVKIRDSFSNQNTETKDTKAR, 1.93.
For AEVVKIRDSFSNQNTETKDTKPR the value was 4.53; for AEVVKIRDSFSNQNTETKDTKFR, 4.11; for AEVVKIRDSFSNQNVETKDTKSR, 2.38.
For AEVVKIRDSFSNQNNETKDTKSR the value was 2.52; for AEVVKIRDSFSNQNLETKDTKSR, 2.17; for AEVVKIRDSFSNQNPETKDTKSR, 2.08.
In the case of AEVVKIRDSFSNQNYETKDTKSR, the protein stability index was found to be 1.62.
AEVVKIRDSFSNQNDETKDTKSR: the protein stability index is 3.36.
The result for AEVVKIRDSFSNQNKETKDTKSR reads 2.21.
The result for AEVVKIKDSFSNQNTETKDTKSR reads 2.88; that for AEVVKIHDSFSNQNTETKDTKSR, 2.21.
The result for AEVVKIPDSFSNQNTETKDTKSR reads 3.24; that for AEVVKIMDSFSNQNTETKDTKSR, 3.19; that for AEVVKIVDSFSNQNTETKDTKSR, 3.12.
AEVVKIDDSFSNQNTETKDTKSR: the protein stability index is 3.65.
The result for AEVVKIIDSFSNQNTETKDTKSR reads 2.52; that for AEVVKIRDSFSNQNTETKDTKSY, 4.56; that for AEVVKIRDSFSNQNTETKDTKSH, 5.37.
For AEVVKIRDSFSNQNTETKDTKSK the value was 5.49.
For AEVVKIRDSFSNQNTETKDTKSN the value was 5.26.
AEVVKIRDSFSNQNTETKDTKSE: the protein stability index was determined as 5.85.
For AEVVKIRDSFSNQNTETKDTKSM, the protein stability index worked out at 5.38.
The result for AEVVKIRDSFSNQNTETKDTKST reads 5.55; that for AEVVKIRDSFSNQNTETKDMKSR, 1.96.
The result for AEVVKIRDSFSNQNTETKDHKSR reads 2.09; that for AEVVKIRDSFSNQNTETKDKKSR, 4.33; that for AEVVKIRDSFSNQNTETKDGKSR, 2.51.
Regarding AEVVKIRDSFSNQNTETKDDKSR, the protein stability index amounted to 2.23.
The result for AEVVKIRDSFSNQNTETKDNKSR reads 3.98; that for AEVVKIRDSFSNQNTETKDTDSR, 5.42; that for AEVVKIRDSFSNQNTETKDTWSR, 3.92.
For AEVVKIRDSFSNQNTETKDTASR the value was 5.24; for AEVVKIRDSFSNQNTETKDTESR, 5.2.
In the case of AEVVKIRDSFSNQNTETKDTNSR, the protein stability index was determined as 5.59.
The result for AEVVKIRDSFSNQNTETKDTYSR reads 3.57; that for AEVVKIRDSFSNQNTETKDTGSR, 5.44; that for AEVVKIRDSFSNQNTETKDTCSR, 4.39.
For AEVVKIRDSFSNQNTETKDTPSR the value was 3.51; for AEVVKIRDSFSNQNTETKDTLSR, 4.19.
The result for AEVVKIRDSFSNQNTETKDTSSR reads 5.01; that for AEVVKIRDSFSNQNTETKDTMSR, 4.99.
For the variant AEVVKIRDSFSNQNTETKDTISR, the protein stability index was 4.85.
Take AEVVKIRSSFSNQNTETKDTKSR: the protein stability index was 1.8.
The result for AEVVKIRESFSNQNTETKDTKSR reads 2.92.
For AEVVKIRKSFSNQNTETKDTKSR the value was 2.08; for AEVVKIRVSFSNQNTETKDTKSR, 3.31.
For AEVVKIRLSFSNQNTETKDTKSR the value was 2.62.
Regarding AEVVKIRASFSNQNTETKDTKSR, the protein stability index is 2.53.
For AEVVKIRFSFSNQNTETKDTKSR the value was 3.02; for AEVVKIRHSFSNQNTETKDTKSR, 2.41; for AEVVKIRDSFSIQNTETKDTKSR, 2.17.
Turning to AEVVKIRDSFSKQNTETKDTKSR, the protein stability index came out at 2.17.
AEVVKIRDSFSTQNTETKDTKSR: the protein stability index was 2.23.
Regarding AEVVKIRDSFSAQNTETKDTKSR, the protein stability index stood at 2.33.
For AEVVKIRDSFSVQNTETKDTKSR the value was 1.68; for AEVVKIRDSFSPQNTETKDTKSR, 1.95.
For AEVDKIRDSFSNQNTETKDTKSR the value was 3.04; for AEVPKIRDSFSNQNTETKDTKSR, 3.04.
The result for AEVIKIRDSFSNQNTETKDTKSR reads 1.98; that for AEVSKIRDSFSNQNTETKDTKSR, 2.12.
With AEVLKIRDSFSNQNTETKDTKSR, the protein stability index amounted to 4.87.
For AEVMKIRDSFSNQNTETKDTKSR the value was 2.05.
The result for AEVQKIRDSFSNQNTETKDTKSR reads 2.81.
The result for AEVKKIRDSFSNQNTETKDTKSR reads 2.3; that for AEVTKIRDSFSNQNTETKDTKSR, 2.18.
AEVHKIRDSFSNQNTETKDTKSR: the protein stability index came to 2.14.
For AEVVKIRDSFSNQNTENKDTKSR the value was 1.86; for AEVVKIRDSFSNQNTEWKDTKSR, 3.5.
For the variant AEVVKIRDSFSNQNTEYKDTKSR, the protein stability index turned out to be 2.31.
The result for AEVVKIRDSFSNQNTEPKDTKSR reads 2.97.
For AEVVKIRDSFSNQNTEEKDTKSR the value was 2.43; for AEVVKIRDSFSNQNTEQKDTKSR, 2.61; for AEVVKIRDSFSNQNTEVKDTKSR, 1.26.
For the variant AEFVKIRDSFSNQNTETKDTKSR, the protein stability index came out at 2.09.
For AEYVKIRDSFSNQNTETKDTKSR the value was 1.7; for AEPVKIRDSFSNQNTETKDTKSR, 3.46; for AEAVKIRDSFSNQNTETKDTKSR, 2.24.
In the case of AEHVKIRDSFSNQNTETKDTKSR, the protein stability index worked out at 2.
For AEVVKIRDTFSNQNTETKDTKSR the value was 2.29; for AEVVKIRDHFSNQNTETKDTKSR, 3.54.
In the case of AEVVKIRDWFSNQNTETKDTKSR, the protein stability index was found to be 2.14.
The result for AEVVKIRDAFSNQNTETKDTKSR reads 2.55.
For AEVVKIRDPFSNQNTETKDTKSR the value was 2.64.
For AEVVKIRDGFSNQNTETKDTKSR the value was 2; for AEVVKIRDCFSNQNTETKDTKSR, 2.8; for AEVVKIRDKFSNQNTETKDTKSR, 2.32.
For AEVVKIRDNFSNQNTETKDTKSR, the protein stability index is 2.22.
For AEVVKIRDSCSNQNTETKDTKSR the value was 2.54; for AEVVKIRDSISNQNTETKDTKSR, 2.32.
The result for AEVVKIRDSYSNQNTETKDTKSR reads 2.53; that for AEVVKIRDSKSNQNTETKDTKSR, 4.18.
For AEVVKIRDSLSNQNTETKDTKSR the value was 3.26; for AEVVKIRDSASNQNTETKDTKSR, 3.76; for AEVVKIRDSQSNQNTETKDTKSR, 3.46.
